# Laboratory results published in the supplement of paper PMC7125110.
# ± gives the standard error. Variants at the floor of the assay were thinned out.
# B1: glmS ribozyme (parent)
# chain: AUAAAAGCGCCAGAACUACAGAAAUGUAGUUGACGAGGAGGAGGUUUAUCGAAUUUUCGGCGGAUGCCUCCAAA
# Key:
# Conditions in all cases: with glucosamine-6-phosphate
# glucosamine-6-phosphate [1] = variants of: B1; assay: self-cleavage kobs at 640 uM GlcN6P; higher = faster cleavage; RNA array
# Summary of the method: (§1)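 Over ~14 h at 37 °C, tiles were imaged as glucosamine-6-phosphate (40 μM to 10 mM) in HEPES/KCl/Mg(OAc)2 buffer flowed across sequenced MiSeq chips. The chips carried barcoded ribozyme variants transcribed in situ by E. coli RNA polymerase and tracked with a hybridised Cy3 probe. After normalisation to baseline and to non-cleaving reference variants, one- or two-exponential decay fits of per-tile medians gave kobs. kcat and KM followed from weighted Michaelis–Menten fits across concentrations.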
# glucosamine-6-phosphate [2] = variants of: B1; assay: self-cleavage kobs at 2500 uM GlcN6P; higher = faster cleavage; RNA array
# Summary of the method: as §1
# glucosamine-6-phosphate [3] = variants of: B1; assay: self-cleavage kobs at 10000 uM GlcN6P; higher = faster cleavage; RNA array
# Summary of the method: as §1
Variant,self-cleavage kobs at 640 uM GlcN6P (glucosamine-6-phosphate [1]),self-cleavage kobs at 2500 uM GlcN6P (glucosamine-6-phosphate [2]),self-cleavage kobs at 10000 uM GlcN6P (glucosamine-6-phosphate [3])
AUAAAAGCGCAACAACUACAGAAAUGUAGUUGACGAGGAGGAGGUUUAUCGAAUUUGCGGCGGAUGCCUCCAAA [C11A G13C U57G],< 1e-05 s⁻¹,–,–
AUAAAAGCGCCAGAACUACAGAAAUGUAGUUGACAAGGAGUAGGUUUAUCGAACUUUCGGCGGAUGCCUCCAAA [G35A G41U U54C],< 1e-05 s⁻¹,< 1e-05 s⁻¹,–
AUAAAAGCGCCAGAACUACAGAAAUGUAGUUGACGAGGAGGCGGUUUAUCGAAAUUUCGGCGGACGCCUCCAAA [A42C U54A U65C],< 1e-05 s⁻¹,–,–
AUAAAGGCGCCAGAACUACAGAAAUGUAGUUGACGAGGAUGAGGUUUAUCGAAUUUUCGGCGGAUGACUCCAAA [A6G G40U C67A],< 1e-05 s⁻¹,–,–
AUAAAAUCGCGAGAACUACAGAAAUGUAGUUGACGAGGAGGAGGUUUAUCGAAUUUUCGGCGGUUGCCUCCAAA [G7U C11G A64U],< 1e-05 s⁻¹,< 1e-05 s⁻¹,< 1e-05 s⁻¹
AUAAAAGCGCCAGAACUACAGAAAUGUAGUUGACGAGGAAGAUGUUUAUAGAAUUUUCGGCGGAUGCCUCCAAA [G40A G43U C50A],< 1e-05 s⁻¹,–,–
AUAAAAACGCCCGAACUACAGAAAUGUAGUUGACGAGGAGGAGGUUUACCGAAUUUUCGGCAGAUGCCUCCAAA [G7A A12C U49C G62A],< 1e-05 s⁻¹,< 1e-05 s⁻¹,–
AUAAAAGCGCCAGAACUACAGAAAUGUAGUUGACGGGGGUGAGGUUUAUCGAAUUUUCGGCGGAUGCCUCCAAA [A36G A39G G40U],< 1e-05 s⁻¹,< 1e-05 s⁻¹,< 1e-05 s⁻¹
AUAAAAGCCCCAGAACUACAGAAAUGUAGUUGACGAGGAGGAGGUUUAUCGAGUUUUCGGCGGACGCCUCCAAA [G9C A53G U65C],< 1e-05 s⁻¹,< 1e-05 s⁻¹,–
AUAAAAGCGCCAGAACUACAGAAAUGUAGUUGACGAGGAGCAGGUUUAUCGAAUUUUCGUCGGACGGAUCCAAA [G41C G60U U65C C67G C68A],< 1e-05 s⁻¹,–,–
AUAAAAGCGCGAGAACUACAGAAAUGUAGUUGACGAGGUGGAGGCUUAAUGAAUUUUCGGCCGAGGCCUCCAAA [C11G A39U U45C U49A C50U G62C U65G],< 1e-05 s⁻¹,–,–
AUAAAAGCGCCAGAACUACAGAAAUGUACCUGACGAGGAGGAGGUUUAUCGAAUUUUCGGCGGAUUCCUCCAAA [G29C U30C G66U],< 1e-05 s⁻¹,–,–
AUAAAAACGCCAGAACUACAGAAAUGUAGUUGACGAGGCGGAGGUUUAUCGAAUUUUCGGCGGAUGCCUCCAAA [G7A A39C],< 1e-05 s⁻¹,< 1e-05 s⁻¹,–
AUAAAAGCGCCAGAAUUACAGAAAUGUAGUUGACUAGGAGGAGGUUUAUCGAAUUUUCGGCGGCUGCCUCCAAA [C16U G35U A64C],< 1e-05 s⁻¹,< 1e-05 s⁻¹,–
AUAAAAGCGCGAGAACUACAGAAAUGUAGUUGACGAGGAGGAGGUUUAUCGAAUUUUCGGCGGUUGCCUCCAAA [C11G A64U],< 1e-05 s⁻¹,< 1e-05 s⁻¹,–
AUAAAAGCGCCAGAACUACAGAAAUGUAGUUGACGAGGAGGAGGUUUAUCUAAUUUUCGGCGCAUUCCAACAAA [G51U G63C G66U U69A C70A],< 1e-05 s⁻¹,–,–
AUAAAAGCGCCAGAACUACAGAAAUGUAGUUGACGAGGAGGAGGUUUAUUGAAUUUUCUGCGGAUGCCAGCAAA [C50U G59U U69A C70G],0.000556 ± 0.00018 s⁻¹,7.32e-05 ± 2.9e-05 s⁻¹,–
AUAAAAGCGCCAGAACUACAGAAAUGUAGUUGACGAGGAGUUGGUUUAUCGAAUUUUCGGAGGAUGCCUCCAAA [G41U A42U C61A],< 1e-05 s⁻¹,< 1e-05 s⁻¹,–
AUAAAAGCGCCCGAACUACAGAAAUGUAGUUGACCAGGAGGAGAUUUAUUGAAUUUUCGGCGGAUGCCUCCAAA [A12C G35C G44A C50U],< 1e-05 s⁻¹,< 1e-05 s⁻¹,–
AUAAAAGCGCCAGAACUACAGAAAUGUAGGUGACGAGGAGGAGGUUUAUCGCAUUUUCGGCGGAUGCCUCGAAA [U30G A52C C71G],< 1e-05 s⁻¹,–,–
AUAAAAGCGCCAGAACUACAGAAAUGUAGUUCGCAAGGAGGAGGUUUAUCGAAUUUUCGGAGGAUGCCUCCAAA [G32C A33G G35A C61A],< 1e-05 s⁻¹,–,–
AUAAAAGCGCGAGAGCUACAGAAAUGUAGUUGACGAGGAGGAGGUUUAUGGAAUUUUCGGCGGAUUCCUCCAAA [C11G A15G C50G G66U],0.000661 ± 0.00032 s⁻¹,–,–
AUAAAAGCGCCAGAACUACAGAAAUGUAGUUCACGAGGAGGAGGUUUAUCUAAUUUUCGGCGGAUGCCUACAAA [G32C G51U C70A],0.000153 ± 5.2e-05 s⁻¹,–,7.14e-05 ± 3e-05 s⁻¹

Variant,self-cleavage kobs at 640 uM GlcN6P (glucosamine-6-phosphate [1]),self-cleavage kobs at 2500 uM GlcN6P (glucosamine-6-phosphate [2]),self-cleavage kobs at 10000 uM GlcN6P (glucosamine-6-phosphate [3])
AUAAAAGCGCCAGAACUACAGAAAUGUAGUUGACGAGGAGGAGGUUUAUCGAAUUUUCGGCGCAUUCCUCCAAA [G63C G66U],< 1e-05 s⁻¹,< 1e-05 s⁻¹,< 1e-05 s⁻¹
AUAAAAGCGCCAGAACUACAGAAAUGUAGUUGACAAGGAGGAGGUUUAUCGACUUUUCGGCGCAUGCCUCCAAA [G35A A53C G63C],< 1e-05 s⁻¹,< 1e-05 s⁻¹,–
AUAAAAGCGCCAGAACUACAGAAAUGUAGUUGACGAGGGGGAGGUUUAUCGAAUUUUCGGCUGAUGCCUUCAAA [A39G G62U C70U],< 1e-05 s⁻¹,< 1e-05 s⁻¹,–
AUAAAAGCGCCAGAACUACAGAAAUGUAGUUGACGAGGAGGAGGUUUGUCGAAUUUUAGGCGGAUGGCUUCAAA [A48G C58A C67G C70U],0.000135 ± 4.4e-05 s⁻¹,6.91e-05 ± 2.5e-05 s⁻¹,4.32e-05 ± 1.3e-05 s⁻¹
AUAAAAGCGCCCGAACUACAGAAAUGUAGUUGACGAGGAGGAGGUUUAUCGAAUUUUCGCCGGAUGUCUCCAAA [A12C G60C C67U],< 1e-05 s⁻¹,–,–
AUAAAAGCGCAAGAACUACAGAAAUGUAGUCGACGAGGAGGCGGUUUAUCGAAUUUUCGGCGGAUGCCUCCAAA [C11A U31C A42C],< 1e-05 s⁻¹,–,–
AUAAAUGCGCCAGAACUACAGAAAUGUAGUUGACGAGGAGGAGGUUUAUCGAAUUUUCGGCGGAUGCCUACAAA [A6U C70A],0.000142 ± 6.1e-05 s⁻¹,2.49e-05 ± 9.6e-06 s⁻¹,–
AUAAAGGCGCCAGAAGUACAGAAAUGUAGUUGACGAGGAGGAGGUUUAUCGAAUUUCCGGCGGAUGCCUCCAAA [A6G C16G U57C],< 1e-05 s⁻¹,–,–
AUAAAAGCGCCAGAACUACAGAAAUGUAGUUGACGAGGAGGAGGUUUAUCGCGUUUUCGCCGGACGCCUCCAAA [A52C A53G G60C U65C],< 1e-05 s⁻¹,–,–
AUAAAAGGGCCAGAACUACAGAAAUGUAGUUGACGAGGAGGAGGUUUAUUGAUUGUUCGGCGGAUGCCUCCAAA [C8G C50U A53U U55G],< 1e-05 s⁻¹,–,–
AUAAAAGCGCCAGGAAUACAGAAAUGUAGUUGACGAGGAGGAGGUUUAUCGAAUUAUCGGCGGAUGCCUCCAAA [A14G C16A U56A],0.00547 ± 0.0015 s⁻¹,0.00293 ± 0.0013 s⁻¹,–
AUAAAAGCGCCAGAACUACAGAAAUGUAGUUGACGAGGAGGAGGUUAAUCGAAUUUUCGGCGGAUUCAUCCAAA [U47A G66U C68A],0.00243 ± 0.00077 s⁻¹,5.79e-05 ± 1.7e-05 s⁻¹,–
AUAAAAGCGCCAGAACUACAGAAAUGUAAUUGACCAGGAGGAGGUUUGUCGAAUUUUCGGCGGAUGCCUCCAAA [G29A G35C A48G],< 1e-05 s⁻¹,–,–
AUAAAAACGCCACAACUACAGAAAUGUAGUUGACGAGGAGGAGGUUUAUCGAAUUUUCGGCUGAUGCCUCCAAA [G7A G13C G62U],< 1e-05 s⁻¹,–,–
AUAAAAGCGCCAGAACUACAGAAAUGUAGAUGACGAGGAGGAGGGUUAUCGAAUUUUCGGCGGAUGCCUCCAAA [U30A U45G],0.000279 ± 6.7e-05 s⁻¹,0.000752 ± 0.00013 s⁻¹,–
AUAAAAGAGCUAGAACUACAGAAAUGUAGUUGACGACGAGGAGGUUUAUCGAAUUUUCGGCAGAUGCCUCCAAA [C8A C11U G37C G62A],< 1e-05 s⁻¹,< 1e-05 s⁻¹,–
AUAAAAGCGCUAGAACUACAGAAAUGUAGUUGACGAGGAGGAAGUAUAUCGAAUGUUCGGCGGAGACCUCCAAA [C11U G43A U46A U55G U65G G66A],< 1e-05 s⁻¹,< 1e-05 s⁻¹,–
AUAAACGCGCCAGCACUACAGAAAUGUAGUCGACGGGGAGGAGGUUUGUCGAAUUUUCGGCGGAUGCCUCCAAA [A6C A14C U31C A36G A48G],< 1e-05 s⁻¹,–,< 1e-05 s⁻¹
AUAAAAGCGCCUGAACUACAGAAAUGUAGUUCACGAGGAGGAGGUUGAUCGAAUUUUCGGCGGAUGCCUACAAA [A12U G32C U47G C70A],0.0007 ± 0.00018 s⁻¹,–,–
AUAAAAGCGCCAGAACUACAGAAAUGUAGUUGACGCGGACGAGGUUUAUCGAAUUUUCGGCGGAUGCCUCCAAA [A36C G40C],< 1e-05 s⁻¹,< 1e-05 s⁻¹,< 1e-05 s⁻¹
AUAAAAGCGCCAGAACUACAGAAAUGUAGUUGACCAGGAGGAGGUUUAUCGAAUUUUAGGCGGAUGUCUCCAAA [G35C C58A C67U],< 1e-05 s⁻¹,–,–
AUAAAAGCUCCAGUAAUACAGAAAUGUAGUUUACGGGGAGGAGGUUUAUCGAAUUUUCGGCGGAUGCCUCCAAA [G9U A14U C16A G32U A36G],< 1e-05 s⁻¹,–,–
